Assay results from paper PMC4397963, “Phospho-Tyrosine(s) vs. Phosphatidylinositol Binding in Shc Mediated Integrin Signaling” (American journal of molecular biology, 2015).
Entries after “also recorded” stand apart in the source; their conditions may differ. Each block holds one molecule with its values, some of them ahead of it. Where a SMILES comes first, the peptide text is derived from it. Where no end group is shown, it is not given here. [ ]: non-standard residue; d: D form. pY = N[C@@H](Cc1ccc(OP(=O)(O)O)cc1)C(=O)O

Legend:
[1] = target: T1, full length Shc (1 – 473) (Homo sapiens, UniProt P29353); assay: ITC binding to full length Shc; conditions: full-length Shc titrated by bi-β3, Ins(1,4,5)P3 at 3 to 1
T1 construct: The vector of pET28a-full length Shc (1 – 473), generously provided by Dr. Ladbury; His-tag (N); made in house; host or cells: E. coli BL21 (DE3), pET28a (vector a gift from Dr. Ladbury)
T1 sequence (P29353 1-473 isoform P29353-2): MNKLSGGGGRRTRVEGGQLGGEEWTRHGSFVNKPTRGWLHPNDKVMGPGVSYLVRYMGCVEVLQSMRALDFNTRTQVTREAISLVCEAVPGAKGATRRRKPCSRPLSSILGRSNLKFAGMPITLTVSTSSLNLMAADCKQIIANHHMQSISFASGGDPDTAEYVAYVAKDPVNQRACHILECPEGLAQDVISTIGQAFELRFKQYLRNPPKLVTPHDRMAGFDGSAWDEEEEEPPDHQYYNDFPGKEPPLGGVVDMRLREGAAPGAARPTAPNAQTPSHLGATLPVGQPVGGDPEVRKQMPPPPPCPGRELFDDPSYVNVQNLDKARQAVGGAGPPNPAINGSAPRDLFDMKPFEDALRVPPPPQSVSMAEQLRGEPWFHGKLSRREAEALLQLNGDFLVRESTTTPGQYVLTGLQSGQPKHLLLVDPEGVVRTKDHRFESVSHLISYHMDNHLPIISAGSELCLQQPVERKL
Experimental: The Shc PTB domain (17 – 207) containing the pET15b vector was transformed into a Rosetta (DE3) cell line to pursue optimal expression levels. SH2 domain (380 – 473) was cloned into NdeI and XhoI sites in pET21b vector and then transformed into a BL21 (DE3) cell line. The vector of pET28a-full length Shc (1 – 473), generously provided by Dr. Ladbury (University of Texas MD Anderson Cancer Center, TX), was expressed in a BL21 (DE3) cell line as well. Typically, 10 ml overnight culture was used to inoculate 1 liter LB broth. Cells were grown at 37°C until OD600 reached 0.6. At this point the culture was cooled to room temperature and then the overnight overexpression was induced by 1 mM isopropyl-β-D-thiogalactopyranoside. Harvested cells were kept at −20°C for future purification or resuspended in lysis buffer supplemented with protease inhibitors. Cells were further lysed by french press and the cell debris was removed by centrifugation at 18,000 rpm at 4°C. […] The overexpression of the target protein and the purified protein were confirmed by SDS-PAGE and the bands of the expected mass were observed. […]
Calorimetric measurements of a full length Shc, PTB domain, and SH2 domain to β3 phosphopeptides or PtdIns were performed on a low volume Nano ITC (TA Instruments). […] The concentration of protein samples was determined by UV measurements. […]

[2] = target: T2, Shc PTB domain (17 – 207) (Homo sapiens, UniProt P29353); assay: ITC binding to Shc PTB domain; conditions: PtdIns binding to PTB domain, ITC, 25°C
T2 construct: The Shc PTB domain (17 – 207) containing the pET15b vector was transformed into a Rosetta (DE3) cell line; His-tag (N); made in house; host or cells: E. coli Rosetta (DE3), pET15b
T2 sequence (P29353 17-207 isoform P29353-2): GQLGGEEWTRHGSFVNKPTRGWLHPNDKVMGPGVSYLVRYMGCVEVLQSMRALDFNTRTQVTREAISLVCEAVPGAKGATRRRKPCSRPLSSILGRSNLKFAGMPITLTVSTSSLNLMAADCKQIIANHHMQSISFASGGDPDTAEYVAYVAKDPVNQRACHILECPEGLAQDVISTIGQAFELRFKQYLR
Experimental: The Shc PTB domain (17 – 207) containing the pET15b vector was transformed into a Rosetta (DE3) cell line to pursue optimal expression levels. SH2 domain (380 – 473) was cloned into NdeI and XhoI sites in pET21b vector and then transformed into a BL21 (DE3) cell line. The vector of pET28a-full length Shc (1 – 473), generously provided by Dr. Ladbury (University of Texas MD Anderson Cancer Center, TX), was expressed in a BL21 (DE3) cell line as well. Typically, 10 ml overnight culture was used to inoculate 1 liter LB broth. Cells were grown at 37°C until OD600 reached 0.6. At this point the culture was cooled to room temperature and then the overnight overexpression was induced by 1 mM isopropyl-β-D-thiogalactopyranoside. Harvested cells were kept at −20°C for future purification or resuspended in lysis buffer supplemented with protease inhibitors. Cells were further lysed by french press and the cell debris was removed by centrifugation at 18,000 rpm at 4°C. […] The overexpression of the target protein and the purified protein were confirmed by SDS-PAGE and the bands of the expected mass were observed. The determination of protein concentration by UV measurement was consistent with Bradford assay.
Calorimetric measurements of a full length Shc, PTB domain, and SH2 domain to β3 phosphopeptides or PtdIns were performed on a low volume Nano ITC (TA Instruments). All experiments were carried out in a buffer of 50 mM Tris, pH 7.5, 100 mM NaCl, 5 mM β-mercaptoethanol (unless described otherwise) at 12°C or 25°C with a stirring speed of 250 rpm to minimize the precipitation of the protein. 300 second time intervals were set between injections. The concentration of protein samples was determined by UV measurements. The titrants (β3 phosphopeptides or PtdIns) were prepared in the same buffer by the dilution of higher concentration stocks. The concentrations of the protein ranged from 30 μM to 150 μM. The concentration of protein was examined after each ITC experiment by UV to ensure the stability of proteins under the test condition. The analysis of the data was done with Nano Analyze Software (TA Instruments) suite using an “independent” model.

[3] = target: T3, Shc PTB domain (17 – 207) (UniProt P29353-2 17-207); assay: ITC; Nano ITC; β3 phosphopeptide titrated into the Shc protein over-saturated by Ins(1,4,5)P3 at 3 to 1 lipid to protein ratio; 12°C; conditions: both partners purified
T3 construct: Shc adaptor protein (p52 isoform), PTB domain, residues 17-207, from a pET15b vector; numbers count on: the p52 isoform (full length 1-473); 15N-labelled (M9 medium with 15NH4Cl) for the NMR experiments; Monomeric on Superdex-75; also called apo PTB domain; source: E. coli Rosetta (DE3), purified (Ni-NTA, Superdex-75)
T3 sequence (looked up): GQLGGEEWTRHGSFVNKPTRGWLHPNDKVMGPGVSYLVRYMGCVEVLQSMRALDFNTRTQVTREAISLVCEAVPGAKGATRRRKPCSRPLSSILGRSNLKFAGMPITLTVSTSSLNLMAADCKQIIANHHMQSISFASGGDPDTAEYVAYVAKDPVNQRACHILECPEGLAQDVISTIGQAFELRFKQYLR

[4] = target: T4, full length Shc (1 – 473) (UniProt P29353-2 1-473); assay: as above; conditions: both partners purified
T4 construct: Shc adaptor protein, full length 1-473 (printed length 473 residues, the p52 isoform), from a pET28a vector provided by Dr. Ladbury; numbers count on: the p52 isoform; Monomeric on Superdex-75; also called Shc full length; p52 Shc; source: E. coli BL21 (DE3), purified (Ni-NTA, Superdex-75)
T4 sequence (looked up): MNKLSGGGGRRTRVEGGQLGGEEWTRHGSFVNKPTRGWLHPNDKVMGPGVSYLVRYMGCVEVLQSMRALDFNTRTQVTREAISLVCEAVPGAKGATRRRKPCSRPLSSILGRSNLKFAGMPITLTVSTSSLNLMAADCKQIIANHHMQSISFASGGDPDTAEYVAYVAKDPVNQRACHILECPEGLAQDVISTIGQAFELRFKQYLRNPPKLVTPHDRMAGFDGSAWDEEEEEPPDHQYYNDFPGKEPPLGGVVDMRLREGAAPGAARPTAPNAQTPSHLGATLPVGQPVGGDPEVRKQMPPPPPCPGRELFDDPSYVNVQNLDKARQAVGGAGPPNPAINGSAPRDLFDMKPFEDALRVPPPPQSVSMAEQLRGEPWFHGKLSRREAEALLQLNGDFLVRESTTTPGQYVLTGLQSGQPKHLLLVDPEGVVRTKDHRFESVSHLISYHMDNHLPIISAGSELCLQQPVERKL

[5] = target: T3, Shc PTB domain (17 – 207); assay: ITC; Nano ITC; β3 phosphopeptide titrated into the Shc protein (30-150 μM); 25°C; 50 mM Tris, pH 7.5, 100 mM NaCl, 5 mM β-mercaptoethanol; independent model; conditions: both partners purified
[6] = target: T4, full length Shc (1 – 473); assay: as above; conditions: both partners purified
[7] = target: T3, Shc PTB domain (17 – 207); assay: ITC; Nano ITC; β3 phosphopeptide titrated into the Shc protein (30-150 μM); 12°C; 50 mM Tris, pH 7.5, 100 mM NaCl, 5 mM β-mercaptoethanol; independent model; conditions: both partners purified
[8] = target: T4, full length Shc (1 – 473); assay: as above; conditions: both partners purified
[9] = target: T3, Shc PTB domain (17 – 207); assay: ITC; Nano ITC; β3 phosphopeptide titrated into the Shc protein (30-150 μM); 25°C; 50 mM Tris, pH 7.5, 100 mM NaCl, 5 mM β-mercaptoethanol; independent model; conditions: both partners purified; remark: listed apart in the source
[10] = target: T4, full length Shc (1 – 473); assay: as above; conditions: both partners purified; remark: listed apart in the source

change in Kd caused by Ins(1,4,5)P3 [1]: slight reduction of Kd value
Molecule: CC[C@H](C)[C@H](NC(=O)[C@H](CC(N)=O)NC(=O)[C@@H](NC(=O)[C@H](Cc1ccccc1)NC(=O)[C@@H](NC(=O)[C@H](CO)NC(=O)[C@@H](NC(=O)[C@H](C)NC(=O)[C@H](CCC(=O)O)NC(=O)[C@H](CCCCN)NC(=O)[C@H](Cc1ccc(OP(=O)(O)O)cc1)NC(=O)[C@H](CC(C)C)NC(=O)[C@@H]1CCCN1C(=O)[C@H](CC(N)=O)NC(=O)[C@H](CC(N)=O)NC(=O)[C@H](C)NC(=O)[C@@H](NC(=O)[C@H](CC(=O)O)NC(=O)[C@H](Cc1c[nH]c2ccccc12)NC(=O)[C@H](CCCCN)NC(=O)[C@H](C)NC(=O)[C@@H](N)CCCNC(=N)N)[C@@H](C)O)[C@@H](C)O)[C@@H](C)O)[C@@H](C)O)C(=O)N[C@H](C(=O)N[C@@H](Cc1ccc(OP(=O)(O)O)cc1)C(=O)N[C@@H](CCCNC(=N)N)C(=O)NCC(=O)N[C@H](C(=O)O)[C@@H](C)O)[C@@H](C)O [bi-β3] (H-RAKWDTANNPL[pY]KEATSTFTNIT[pY]RGT-OH)

ΔG ([2]; pH 7.5): No binding
ΔH ([2]; pH 7.5): No binding
−TΔS ([2]; pH 7.5): No binding
Molecule: Phosphatidylinositol-5-phosphate [PtdIns(5)P1]
Kd ([2]; 50 mM Tris pH 7.5, 100 mM NaCl, 5 mM β-mercaptoethanol, "independent" model, dihexanoyl- or dioctonoyl- PtdIns): not able to detect the binding; also recorded: does not show to bind; also recorded: No binding

Kd [3]: 1.12 µM
dH [3]: -23.6 kJ/mol
Kd [4]: 0.87 µM
dH [4]: -21.1 kJ/mol
Kd [5]: 0.34 µM
stoichiometry N [5]: 1 ± 0.15
stoichiometry N [6]: 1 ± 0.15
Kd [7]: 1.05 µM
dH [7]: -24.2 kJ/mol
Kd [8]: 0.82 µM
dH [8]: -21 kJ/mol
Kd [9]: 0.35 µM
dH [9]: -25.4 kJ/mol
Kd [10]: 1.33 µM
dH [10]: -7.4 kJ/mol
B1: c-β3: β3 integrin derived peptide phosphorylated at C-terminal tyrosine (Y759) (peptide)
peptide: ATSTFTNIT[pY]RGT
notes: integrin β3 cytoplasmic tail, residues 750-762, Y759 phosphorylated; also called mono-phosphorylated peptide; source: synthetic peptide (NEO-Peptide)
